Measured values as given in US20060073508A1 (published 2006).

Molecular target: GRK2 (βARK1)
Test: cell-based or functional assay

B1: hemagglutinin epitope-tagged Del301-303 human alpha-2B adrenergic receptor (receptor)
chain: YPYDVPDYAMDHQDPYSVQATAAIAAAITFLILFTIFGNALVILAVLTSRSLRAPQNLFLVSLAAADILVATLIIPFSLANELLGYWYFRRTWCEVYLALDVLFCTSSIVHLCAISLDRYWAVSRALEYNSKRTPRRIKCIILTVWLIAAVISLPPLIYKGDQGPQPRGRPQCKLNQEAWYILASSIGSFFAPCLIMILVYLRIYLIAKRSNRRGPRAKGGPGQGESKQPRPDHGGALASAKLPALASVASAREVNGHSKSTGEKEEGETPEDTGTRALPPSWAALPNSGQGQKEGVCGASPEDEAEEEEEEEEECEPQAVPVSPASACSPPLQQPQGSRVLATLRGQVLLGRGVGAIGGQWWRRRAQLTREKRFTFVLAVVIGVFVLCWFPFFFSYSLGAICPKHCKVPHGLFQFFFWIGYCNSSLNPVIYTIFNQDFRRAFRRILCRPWTQTAW
agonist-promoted whole cell phosphorylation of the receptor (10 µM norepinephrine): 3.28 fold increase
